Results from US20240376200A1 (Seagen, published 2024).

What was measured:
[1] = biological target: recombinant Antigen 1 (recombinant Ab1 target; recombinant integrin αvβ6 antigen); experiment: saturation binding ELISA
[2] = biological target: T1, recombinant human CD47 (human, UniProt Q08722 19-139, limits assumed); experiment: saturation binding ELISA
T1 construct: also called recombinant CD47 antigen

[3] = biological target: Antigen 1 (Ab1 target) expressed on HEK293 / HEK-293F cells; experiment: saturation binding FACS, HEK293 cells
[4] = circular dichroism thermal denaturation at 222 nm

Sequence of Antigen 1 (Ab1 target) expressed on HEK293 / HEK-293F cells (P06756 31-1048, chain 1 of 2): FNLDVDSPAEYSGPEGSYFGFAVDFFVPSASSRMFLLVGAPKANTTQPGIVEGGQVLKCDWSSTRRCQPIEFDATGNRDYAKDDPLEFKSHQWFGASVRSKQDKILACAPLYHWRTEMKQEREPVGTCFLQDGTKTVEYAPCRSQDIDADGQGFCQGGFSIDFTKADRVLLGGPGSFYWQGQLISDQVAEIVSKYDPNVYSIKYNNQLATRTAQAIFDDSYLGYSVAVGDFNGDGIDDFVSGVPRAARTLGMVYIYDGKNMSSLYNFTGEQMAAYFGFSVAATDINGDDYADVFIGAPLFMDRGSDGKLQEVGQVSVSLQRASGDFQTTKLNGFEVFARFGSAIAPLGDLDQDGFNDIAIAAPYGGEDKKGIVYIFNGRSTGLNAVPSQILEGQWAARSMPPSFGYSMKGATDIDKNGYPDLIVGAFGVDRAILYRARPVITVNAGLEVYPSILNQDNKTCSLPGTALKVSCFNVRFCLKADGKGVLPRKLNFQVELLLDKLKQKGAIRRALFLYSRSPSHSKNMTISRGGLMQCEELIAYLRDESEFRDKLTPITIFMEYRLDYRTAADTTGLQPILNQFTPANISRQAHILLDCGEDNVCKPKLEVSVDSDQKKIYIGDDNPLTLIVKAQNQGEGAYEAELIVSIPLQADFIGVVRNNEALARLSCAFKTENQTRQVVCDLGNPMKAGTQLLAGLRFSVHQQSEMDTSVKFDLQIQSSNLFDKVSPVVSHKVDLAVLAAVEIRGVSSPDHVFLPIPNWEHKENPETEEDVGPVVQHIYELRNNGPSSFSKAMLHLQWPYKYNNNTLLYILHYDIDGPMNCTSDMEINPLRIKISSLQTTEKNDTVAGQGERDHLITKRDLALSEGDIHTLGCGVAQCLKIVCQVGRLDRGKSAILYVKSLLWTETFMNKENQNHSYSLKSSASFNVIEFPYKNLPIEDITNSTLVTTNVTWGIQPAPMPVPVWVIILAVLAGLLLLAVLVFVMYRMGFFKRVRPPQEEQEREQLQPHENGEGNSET
Sequence of Antigen 1 (Ab1 target) expressed on HEK293 / HEK-293F cells (P18564 22-788, chain 2 of 2, further chain): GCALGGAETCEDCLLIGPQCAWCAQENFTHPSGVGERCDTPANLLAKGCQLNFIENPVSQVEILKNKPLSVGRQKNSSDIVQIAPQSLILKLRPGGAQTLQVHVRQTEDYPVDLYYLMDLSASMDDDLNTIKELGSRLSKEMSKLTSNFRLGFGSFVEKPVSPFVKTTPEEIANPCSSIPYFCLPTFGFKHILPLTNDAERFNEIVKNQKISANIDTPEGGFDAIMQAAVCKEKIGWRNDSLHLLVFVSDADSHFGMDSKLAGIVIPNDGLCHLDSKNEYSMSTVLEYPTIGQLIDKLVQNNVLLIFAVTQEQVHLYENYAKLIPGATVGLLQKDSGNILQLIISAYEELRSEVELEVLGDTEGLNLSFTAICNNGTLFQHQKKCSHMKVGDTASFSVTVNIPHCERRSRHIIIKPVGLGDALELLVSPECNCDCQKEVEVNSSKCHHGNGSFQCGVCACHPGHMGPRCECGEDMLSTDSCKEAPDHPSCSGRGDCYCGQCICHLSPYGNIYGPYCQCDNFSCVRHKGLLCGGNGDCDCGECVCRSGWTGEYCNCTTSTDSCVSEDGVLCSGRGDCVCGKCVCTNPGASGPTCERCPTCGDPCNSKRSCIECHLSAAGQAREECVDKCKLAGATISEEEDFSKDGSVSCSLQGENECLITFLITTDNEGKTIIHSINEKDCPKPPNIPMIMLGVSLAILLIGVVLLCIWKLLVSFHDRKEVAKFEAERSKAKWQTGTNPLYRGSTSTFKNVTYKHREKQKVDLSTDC
Sequence of recombinant Antigen 1 (recombinant Ab1 target; recombinant integrin αvβ6 antigen) (P06756 31-992, chain 1 of 2): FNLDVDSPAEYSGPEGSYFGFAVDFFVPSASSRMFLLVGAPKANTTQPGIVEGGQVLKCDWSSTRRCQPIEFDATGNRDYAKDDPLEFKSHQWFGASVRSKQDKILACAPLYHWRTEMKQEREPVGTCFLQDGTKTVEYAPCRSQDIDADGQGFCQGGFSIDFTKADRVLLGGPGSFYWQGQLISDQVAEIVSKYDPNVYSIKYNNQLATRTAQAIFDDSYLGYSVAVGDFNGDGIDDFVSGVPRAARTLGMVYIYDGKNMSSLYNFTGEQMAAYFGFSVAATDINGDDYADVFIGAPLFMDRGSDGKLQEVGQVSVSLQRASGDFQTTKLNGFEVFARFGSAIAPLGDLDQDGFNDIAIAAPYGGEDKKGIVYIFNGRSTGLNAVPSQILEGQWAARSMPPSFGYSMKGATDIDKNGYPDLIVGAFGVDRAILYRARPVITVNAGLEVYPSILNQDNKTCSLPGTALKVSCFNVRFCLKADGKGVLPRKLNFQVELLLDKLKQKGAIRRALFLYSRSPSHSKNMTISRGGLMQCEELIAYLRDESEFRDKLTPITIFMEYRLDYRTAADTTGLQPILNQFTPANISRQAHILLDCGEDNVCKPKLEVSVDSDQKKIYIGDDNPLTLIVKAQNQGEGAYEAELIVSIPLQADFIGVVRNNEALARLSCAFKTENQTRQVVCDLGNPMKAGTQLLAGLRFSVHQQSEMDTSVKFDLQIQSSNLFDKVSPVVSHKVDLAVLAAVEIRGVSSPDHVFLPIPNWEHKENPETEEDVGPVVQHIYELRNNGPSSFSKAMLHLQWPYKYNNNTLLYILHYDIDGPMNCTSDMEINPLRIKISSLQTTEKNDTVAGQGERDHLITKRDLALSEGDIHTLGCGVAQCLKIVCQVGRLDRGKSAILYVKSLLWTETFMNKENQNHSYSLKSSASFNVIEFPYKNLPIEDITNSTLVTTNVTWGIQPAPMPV
Sequence of recombinant Antigen 1 (recombinant Ab1 target; recombinant integrin αvβ6 antigen) (P18564 22-709, chain 2 of 2, further chain): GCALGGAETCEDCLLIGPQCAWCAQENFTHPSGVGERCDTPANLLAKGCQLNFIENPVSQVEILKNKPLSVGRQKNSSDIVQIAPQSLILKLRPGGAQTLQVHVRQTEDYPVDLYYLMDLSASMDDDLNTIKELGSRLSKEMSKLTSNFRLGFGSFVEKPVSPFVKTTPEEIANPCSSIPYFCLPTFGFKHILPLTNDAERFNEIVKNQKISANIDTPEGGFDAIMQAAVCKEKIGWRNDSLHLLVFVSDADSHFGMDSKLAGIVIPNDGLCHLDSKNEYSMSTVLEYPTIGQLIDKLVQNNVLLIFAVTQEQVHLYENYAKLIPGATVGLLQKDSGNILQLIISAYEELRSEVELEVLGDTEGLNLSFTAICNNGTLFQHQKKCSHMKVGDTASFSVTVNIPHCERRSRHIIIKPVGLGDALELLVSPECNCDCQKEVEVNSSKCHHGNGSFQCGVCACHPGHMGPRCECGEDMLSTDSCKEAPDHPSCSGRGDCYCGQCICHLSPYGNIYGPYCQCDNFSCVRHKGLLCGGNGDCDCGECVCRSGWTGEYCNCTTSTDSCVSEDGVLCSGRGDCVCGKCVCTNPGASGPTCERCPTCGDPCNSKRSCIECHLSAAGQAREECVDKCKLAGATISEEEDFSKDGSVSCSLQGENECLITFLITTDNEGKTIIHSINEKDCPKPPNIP

Binder | Binding Bmax (OD450) [1] [OD450] | EC50 [1] [nM] | EC50 fold change from Ab1 [1] [fold] | Binding Bmax (OD450) [2] [OD450] | EC50 [2] [nM] | EC50 fold change from hB6H12.3 [2] [fold] | EC50 [3] [nM] | EC50 fold change from Ab1 [3] [fold] | Tm (melting temperature of the heavy chain homodimer) [4]
Vel-IPV-Ab1 Coil 107 (antibody, part only; not given: Ab1 heavy and light chains, part only) heavy, part: QGASTSVDELQAEVDQLEDENYASKTKVAQLRKKVEKLGSIPVSLRSG light, part: QGASTTVAQLEEKVKTLRAENYEFKSEVQRLEEQVAQLGSIPVSLRSG | 0.6 | 133 | 458 | – | – | – | 2.8 | 20 | –
Vel-IPV-Ab1 Coil 114 (antibody, part only; not given: Ab1 heavy and light chains, part only) heavy, part: QGASTSVDELQAEVDQLEDENYAWKTKVAQLRKKVEKLGSIPVSLRSG light, part: QGASTTVAQLEEKVKTLRAENYEFKSEVQRLEEQVAQLGSIPVSLRSG | 1.1 | 278 | 959 | – | – | – | 59.3 | 423 | –
Vel-IPV-Ab1 Coil 115 (antibody, part only; not given: Ab1 heavy and light chains, part only) heavy, part: QGASTSVDELQAEVDQLEDENYAWKTKVAQLRKKVEKLGSIPVSLRSG light, part: QGASTTVAQLEEKVKTLRAENYEYKSEVQRLEEQVAQLGSIPVSLRSG | 1 | 184 | 633 | – | – | – | 152 | 1090 | –
Vel-IPV-Ab1 Coil 106 (antibody, part only; not given: Ab1 heavy and light chains, part only) heavy, part: QGASTSVDELQAEVDQLEDENYAYKTKVAQLRKKVEKLGSIPVSLRSG light, part: QGASTTVAQLEEKVKTLRAENYEFKSEVQRLEEQVAQLGSIPVSLRSG | 0.8 | 190 | 657 | – | – | – | 38.4 | 274 | –
Vel-IPV-Ab1 Coil 110 (antibody, part only; not given: Ab1 heavy and light chains, part only) heavy, part: QGASTSVDELQAEVDQLEDENYAGKTKVAQLRKKVEKLGSIPVSLRSG light, part: QGASTTVAQLEEKVKTLRAENYEWKSEVQRLEEQVAQLGSIPVSLRSG | 1 | 548 | 1890 | – | – | – | 42.9 | 306 | –
Vel-IPV-Ab1 Coil 103 (antibody, part only; not given: Ab1 heavy and light chains, part only) heavy, part: QGASTSVDELQAEVDQLEDENYAGKTKVAQLRKKVEKLGSIPVSLRSG light, part: QGASTTVAQLEEKVKTLRAENYEYKSEVQRLEEQVAQLGSIPVSLRSG | 0.6 | 75.3 | 260 | – | – | – | 2.1 | 15 | –
Vel-IPV-Ab1 Coil 117 (antibody, part only; not given: Ab1 heavy and light chains, part only) heavy, part: QGASTSVDELQAEVDQLEDENYAFKTKVAQLRKKVEKLGSIPVSLRSG light, part: QGASTTVAQLEEKVKTLRAENYEWKSEVQRLEEQVAQLGSIPVSLRSG | 1.1 | 322 | 1110 | – | – | – | 144 | 1030 | –
Vel-IPV-Ab1 Coil 116 (antibody, part only; not given: Ab1 heavy and light chains, part only) heavy, part: QGASTSVDELQAEVDQLEDENYAAKTKVAQLRKKVEKLGSIPVSLRSG light, part: QGASTTVAQLEEKVKTLRAENYEFKSEVQRLEEQVAQLGSIPVSLRSG | 0.7 | 368 | 1270 | – | – | – | 7.5 | 54 | –
Vel-IPV-Ab1 Coil 111 (antibody, part only; not given: Ab1 heavy and light chains, part only) heavy, part: QGASTSVDELQAEVDQLEDENYAGKTKVAQLRKKVEKLGSIPVSLRSG light, part: QGASTTVAQLEEKVKTLRAENYEFKSEVQRLEEQVAQLGSIPVSLRSG | 1.3 | 619 | 2140 | – | – | – | 9.1 | 65 | –
QGASTSVDELQAEVDQLEDENYAIKTKLAQLRKKVEKLGSIPVS [Coil 148 heavy chain peptide for CD studies (VelB L24I/V28L)] | – | – | – | – | – | – | – | – | Tm=40.8 °C
QGASTSVDELQAEVDQLEDENYAIKTKVAQLRKKVEKLGSIPVS [Coil 10 heavy chain peptide for CD studies (VelB L24I)] | – | – | – | – | – | – | – | – | Tm=21.0 °C
QGASTSVDELQAEVDQLEDENYALKTKVAQLRKKVEKLGSIPVS [Vel heavy chain peptide for CD studies (VelB)] | – | – | – | – | – | – | – | – | Tm=23.3 °C

The next lines start with results.

Binding Bmax (OD450) [1] [OD450] | EC50 [1] [nM] | EC50 fold change from Ab1 [1] [fold] | Binding Bmax (OD450) [2] [OD450] | EC50 [2] [nM] | EC50 fold change from hB6H12.3 [2] [fold] | EC50 [3] [nM] | EC50 fold change from Ab1 [3] [fold] | Binder | Tm (melting temperature of the heavy chain homodimer) [4]
0.7 | 14.7 | 67 | – | – | – | – | – | Vel-IPV-Ab1 Coil 134 (antibody, part only; not given: Ab1 heavy and light chains, part only) heavy, part: QGASTSVDELQAEVDQLEDENYAKKTKVAQLRKKVEKLGSIPVSLRSG light, part: QGASTTVAQLEEKVKTLRAENYEIKSEVQRLEEQVAQLGSIPVSLRSG | –
1.2 | 128 | 584 | – | – | – | – | – | Vel-IPV-Ab1 Coil 137 (antibody, part only; not given: Ab1 heavy and light chains, part only) heavy, part: QGASTSVDELQAEVDQLEDENYAVKTKVAQLRKKVEKLGSIPVSLRSG light, part: QGASTTVAQLEEKVKTLRAENYELKSEVQRLEEQVAQLGSIPVSLRSG | –
1.5 | 198 | 827 | – | – | – | – | – | Vel-IPV-Ab1 Coil 151 (antibody, part only; not given: Ab1 heavy and light chains, part only) heavy, part: QGASTSVDELQAEVDQLEDENYALKTKLAQLRKKVEKLGSIPVSLRSG light, part: QGASTTVAQLEEKVKTLRAENYELKSELQRLEEQVAQLGSIPVSLRSG | –
– | – | – | 1.5 | 31.7 | 12 | – | – | Vel-IPV-hB6H12.3 Coil 152 (antibody, part only; not given: hB6H12.3 heavy and light chains, part only) heavy, part: QGASTSVDELQAEVDQLEDENYAHKTKVAQLRKKVEKLGSIPVSLRSG light, part: QGASTTVAQLEEKVKTLRAENYELKSEAQREEEQVAQLGSIPVSLRSG | –
0.9 | 140 | 562 | – | – | – | 132 | 943 | Vel-IPV-Ab1 Coil 121 (antibody, part only; not given: Ab1 heavy and light chains, part only) heavy, part: QGASTSVDELQAEVDQLEDENYAWKTKVAQLRKKVEKLGSIPVSLRSG light, part: QGASTTVAQLEEKVKTLRAENYEAKSEVQRLEEQVAQLGSIPVSLRSG | –
1.8 | 117 | 532 | – | – | – | – | – | Vel-IPV-Ab1 Coil 138 (antibody, part only; not given: Ab1 heavy and light chains, part only) heavy, part: QGASTSVDELQAEVDQLEDENYALKTKLAQLRKKVEKLGSIPVSLRSG light, part: QGASTTVAQLEEKVKTLRAENYELKSEIQRLEEQVAQLGSIPVSLRSG | –
0.6 | 129 | 517 | – | – | – | 14.1 | 10 | Vel-IPV-Ab1 Coil 124 (antibody, part only; not given: Ab1 heavy and light chains, part only) heavy, part: QGASTSVDELQAEVDQLEDENYASKTKVAQLRKKVEKLGSIPVSLRSG light, part: QGASTTVAQLEEKVKTLRAENYEWKSEVQRLEEQVAQLGSIPVSLRSG | –
1.2 | 69.6 | 290 | – | – | – | – | – | Vel-IPV-Ab1 Coil 145 (antibody, part only; not given: Ab1 heavy and light chains, part only) heavy, part: QGASTSVDELQAEVDQLEDENYALKTKIAQLRKKVEKLGSIPVSLRSG light, part: QGASTTVAQLEEKVKTLRAENYEAKSEVQRLEEQVAQLGSIPVSLRSG | –
0.8 | 45.2 | 181 | – | – | – | 16.8 | 120 | Vel-IPV-Ab1 Coil 118 (antibody, part only; not given: Ab1 heavy and light chains, part only) heavy, part: QGASTSVDELQAEVDQLEDENYAFKTKVAQLRKKVEKLGSIPVSLRSG light, part: QGASTTVAQLEEKVKTLRAENYESKSEVQRLEEQVAQLGSIPVSLRSG | –
– | – | – | 1.5 | 21.5 | 8 | – | – | Vel-IPV-hB6H12.3 Coil 164 (antibody, part only; not given: hB6H12.3 heavy and light chains, part only) heavy, part: QGASTSVDELQAEVDQLEDENYASKTKVAQQRKKVEKLGSIPVSLRSG light, part: QGASTTVAQLEEKVKTLRAENYERKSEVQRVEEQVAQLGSIPVSLRSG | –
1.8 | 101 | 461 | – | – | – | – | – | Vel-IPV-Ab1 Coil 142 (antibody, part only; not given: Ab1 heavy and light chains, part only) heavy, part: QGASTSVDELQAEVDQLEDENYALKTKKAQLRKKVEKLGSIPVSLRSG light, part: QGASTTVAQLEEKVKTLRAENYELKSEIQRLEEQVAQLGSIPVSLRSG | –
0.6 | 85.9 | 344 | – | – | – | 14.5 | 104 | Vel-IPV-Ab1 Coil 122 (antibody, part only; not given: Ab1 heavy and light chains, part only) heavy, part: QGASTSVDELQAEVDQLEDENYAYKTKVAQLRKKVEKLGSIPVSLRSG light, part: QGASTTVAQLEEKVKTLRAENYEAKSEVQRLEEQVAQLGSIPVSLRSG | –
– | – | – | 1.7 | 298 | 117 | – | – | Vel-IPV-hB6H12.3 Coil 149 (antibody, part only; not given: hB6H12.3 heavy and light chains, part only) heavy, part: QGASTSVDELQAEVDQLEDENYAIKTKIAQLRKKVEKLGSIPVSLRSG light, part: QGASTTVAQLEEKVKTLRAENYEAKSEVQRLEEQVAQLGSIPVSLRSG | –
1.1 | 43.6 | 182 | – | – | – | – | – | Vel-IPV-Ab1 Coil 149 (antibody, part only; not given: Ab1 heavy and light chains, part only) heavy, part: QGASTSVDELQAEVDQLEDENYAIKTKIAQLRKKVEKLGSIPVSLRSG light, part: QGASTTVAQLEEKVKTLRAENYEAKSEVQRLEEQVAQLGSIPVSLRSG | –
0.6 | 76.6 | 306 | – | – | – | 2.6 | 19 | Vel-IPV-Ab1 Coil 129 (antibody, part only; not given: Ab1 heavy and light chains, part only) heavy, part: QGASTSVDELQAEVDQLEDENYASKTKVAQLRKKVEKLGSIPVSLRSG light, part: QGASTTVAQLEEKVKTLRAENYEYKSEVQRLEEQVAQLGSIPVSLRSG | –
0.7 | 111 | 444 | – | – | – | 9.5 | 68 | Vel-IPV-Ab1 Coil 126 (antibody, part only; not given: Ab1 heavy and light chains, part only) heavy, part: QGASTSVDELQAEVDQLEDENYAYKTKVAQLRKKVEKLGSIPVSLRSG light, part: QGASTTVAQLEEKVKTLRAENYESKSEVQRLEEQVAQLGSIPVSLRSG | –
